Experimental data from patent US20240207421A1, “NERVE TARGETING PEPTIDES AND METHODS OF USE” (ALUME BIOSCIENCES, INC., priority 2020, published 2024).

What follows are binders tested against Laminin 421/521 (assay: phage display, NGS count).

| Binder | Count |
| --- | --- |
| SVLSTGTANQRH | 28 |
| SPDRTNWGWQTN | 29 |
| DIMKSPRSNLRS | 37 |
| CKSPAIKGC | 29 |
| WAYTDYM | 35 |
| AHAAGRDMRQGT | 36 |
| SYDGTMLKQVRL | 36 |
| IDLSLRS | 29 |
| LPMLRHS | 32 |
| GPMLKNLSDAVT | 31 |
| VPSYILR | 30 |
| TAPRWTQ | 30 |
| NGHEVQSRAANR | 29 |
| CSSQAKRSC | 31 |
| CTPRSATLC | 37 |
| LGYGQGTPHRSN | 30 |
| ALPWQSGVHGTK | 34 |
| SLPYAASLNSVE | 28 |
| SWHFTGTPFMNR | 28 |
| CTWKHRDNC | 30 |
| TLKAGTRANDGV | 32 |
| CSRAGLSAC | 30 |
| QGWEFQVPARHS | 30 |
| FNSDSRSTHQED | 29 |

| Binder | Count |
| --- | --- |
| CTAWTRQEC | 31 |
| CIGGPHRNC | 29 |
| GLLDWGSLQGGN | 30 |
| GPLLFRG | 30 |
| HSTYAPG | 33 |
| DWTQVRVTNWFL | 35 |
| SVESNSKLTMPR | 29 |
| IDQSGLQKSGMK | 29 |
| TALSHRHEAMRW | 28 |
| DSLYRGMHQPRI | 29 |
| CLHNGQRSC | 37 |
| LGSSRSPSSFLG | 29 |
| MTNSGAK | 35 |
| EDRMMTYRYTST | 29 |
| QINWKQADKNAD | 33 |
| EVERILTPHVNN | 29 |
| RALDRYLPWSPH | 28 |
| QTFHEYLNPARG | 37 |
| CHNADNNGC | 32 |
| DVIHSSRGAYFE | 36 |
| QALRTNYSPLNS | 32 |
| EYVKFSHSPRTY | 31 |
| RNLHYPLNHPFM | 30 |
| QTFGYSMFNVRT | 30 |

Second part, the binder after the results:

| Count | Binder |
| --- | --- |
| 28 | STNVQRA |
| 35 | LGHQNGGRADMW |
| 29 | HPAWADFFTMSS |
| 30 | KASIAYD |
| 28 | TVARSTAQERSI |
| 30 | GSPEKRT |
| 36 | NWTHLGVARLQP |
| 31 | WGWNGANMSPRG |
| 30 | WRSPLTT |
| 29 | QGWKDRLPIWRY |
| 29 | SHDVANGTSVRT |
| 36 | WQWRSTELGYRY |
| 32 | NDTGRHASGISK |
| 28 | SVQTPMWRSLVG |
| 35 | ALKIGPETTIYM |
| 34 | TFGSGRSMPIQY |

| Count | Binder |
| --- | --- |
| 29 | CNSWKAAKC |
| 28 | TKGIAPK |
| 30 | CQGWPRPMC |
| 31 | GGWQSLWDKPEH |
| 28 | SYTATWSEMSRS |
| 31 | NHDQGSLTRWRS |
| 29 | AVRPLGLPDNHR |
| 36 | WSPANGWRHQTI |
| 34 | VYRNGGGLPLTA |
| 31 | SLLSVVNTSSKS |
| 31 | VVPSWPSVHRPP |
| 31 | CQTSGHHQC |
| 30 | CKSERGPEC |
| 29 | WPMMQTR |
| 33 | CGETTAGKC |
